The results in this text go back to PMC5712524, “Mechanism of early light signaling by the carboxy-terminal output module of Arabidopsis phytochrome B” (Nature Communications, 2017).

In series [1] the target is T1, GST-PIF3 (Arabidopsis, UniProt O80536 1-524).
T1 construct: the construct is not described here
T1 sequence (looked up): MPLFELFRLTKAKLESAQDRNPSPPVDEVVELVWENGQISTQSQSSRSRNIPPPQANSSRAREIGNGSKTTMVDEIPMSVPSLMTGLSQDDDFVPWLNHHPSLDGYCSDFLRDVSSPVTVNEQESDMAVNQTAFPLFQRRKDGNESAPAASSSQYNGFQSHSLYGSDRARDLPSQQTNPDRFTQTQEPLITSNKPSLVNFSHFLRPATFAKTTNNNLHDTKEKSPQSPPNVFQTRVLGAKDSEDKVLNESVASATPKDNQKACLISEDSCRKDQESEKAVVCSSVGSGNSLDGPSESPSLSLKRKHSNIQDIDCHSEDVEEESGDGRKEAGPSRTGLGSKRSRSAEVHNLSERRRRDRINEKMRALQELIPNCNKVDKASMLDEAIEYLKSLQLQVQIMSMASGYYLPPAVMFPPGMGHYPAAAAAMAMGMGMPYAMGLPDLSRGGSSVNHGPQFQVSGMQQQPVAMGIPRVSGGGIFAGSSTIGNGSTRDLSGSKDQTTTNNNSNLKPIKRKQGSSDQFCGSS
The experiment in a line: pull-down; GST pull-down: immobilized GST-PIF3 pulls down HA-tagged PHYB in the Pr form; anti-HA immunoblot; procedure as ref. 33. The following applies: one partner purified. A general note: Immunoblotting shows a protein as a band on a membrane.

Series [2] concerns the molecule itself. The experiment in a line: co-IP; in vitro co-immunoprecipitation: HA-tagged bait and Myc-tagged prey co-expressed in TNT T7 reticulocyte lysate, anti-HA Affinity Matrix, E buffer (50 mM Tris-HCl pH 7.5, 100 mM NaCl, 1 mM EDTA, 1 mM EGTA, 1% DMSO, 2 mM DTT, 0.1% Nonidet P-40), 4 °C 2 h; anti-Myc immunoblot.
Series [3] addresses T1, GST-PIF3. Kind of series: pull-down; GST pull-down: immobilized GST-PIF3 pulls down HA-tagged PHYB as apoprotein; anti-HA immunoblot; procedure as ref. 33. The following applies: one partner purified.

B1: PHYB18-HA (PHYB D1040V), Pr or Pfr form (natural protein, Arabidopsis, UniProt P14713 1-1172, looked up)
chain: MVSGVGGSGGGRGGGRGGEEEPSSSHTPNNRRGGEQAQSSGTKSLRPRSNTESMSKAIQQYTVDARLHAVFEQSGESGKSFDYSQSLKTTTYGSSVPEQQITAYLSRIQRGGYIQPFGCMIAVDESSFRIIGYSENAREMLGIMPQSVPTLEKPEILAMGTDVRSLFTSSSSILLERAFVAREITLLNPVWIHSKNTGKPFYAILHRIDVGVVIDLEPARTEDPALSIAGAVQSQKLAVRAISQLQALPGGDIKLLCDTVVESVRDLTGYDRVMVYKFHEDEHGEVVAESKRDDLEPYIGLHYPATDIPQASRFLFKQNRVRMIVDCNATPVLVVQDDRLTQSMCLVGSTLRAPHGCHSQYMANMGSIASLAMAVIINGNEDDGSNVASGRSSMRLWGLVVCHHTSSRCIPFPLRYACEFLMQAFGLQLNMELQLALQMSEKRVLRTQTLLCDMLLRDSPAGIVTQSPSIMDLVKCDGAAFLYHGKYYPLGVAPSEVQIKDVVEWLLANHADSTGLSTDSLGDAGYPGAAALGDAVCGMAVAYITKRDFLFWFRSHTAKEIKWGGAKHHPEDKDDGQRMHPRSSFQAFLEVVKSRSQPWETAEMDAIHSLQLILRDSFKESEAAMNSKVVDGVVQPCRDMAGEQGIDELGAVAREMVRLIETATVPIFAVDAGGCINGWNAKIAELTGLSVEEAMGKSLVSDLIYKENEATVNKLLSRALRGDEEKNVEVKLKTFSPELQGKAVFVVVNACSSKDYLNNIVGVCFVGQDVTSQKIVMDKFINIQGDYKAIVHSPNPLIPPIFAADENTCCLEWNMAMEKLTGWSRSEVIGKMIVGEVFGSCCMLKGPDALTKFMIVLHNAIGGQDTDKFPFPFFDRNGKFVQALLTANKRVSLEGKVIGAFCFLQIPSPELQQALAVQRRQDTECFTKAKELAYICQVIKNPLSGMRFANSLLEATDLNEDQKQLLETSVSCEKQISRIVGDMDLESIEDGSFVLKREEFFLGSVINAIVSQAMFLLRDRGLQLIRDIPEEIKSIEVFGVQIRIQQLLAEFLLSIIRYAPSQEWVEIHLSQLSKQMADGFAAIRTEFRMACPGEGLPPELVRDMFHSSRWTSPEGLGLSVCRKILKLMNGEVQYIRESERSYFLIILELPVPRKRPLSTASGSGDMMLMMPY
modifications: Pr or Pfr form (chromophore used not named for this experiment)
notes: Same chain as m21, with chromophore; not shown: HA, C-terminal, kept
As for B1, in the series with GST-PIF3 [1], the “interaction relative to that of PHYB-HA” value is ~0.33 fraction of wild type.

B2: full-length PHYB18 (PHYB D1040V), N-terminal HA- or Myc-tagged (natural protein, Arabidopsis, UniProt P14713 1-1172, looked up)
chain: B1 chain
notes: Two differently tagged copies: the bait copy has the HA tag, the prey copy the Myc tag (each copy has one tag only); also called HA-PHYB18; Myc-PHYB18; source: in vitro translated (TNT T7 Coupled Reticulocyte Lysate System), co-expressed; not shown: HA, N-terminal, kept; Myc, N-terminal, kept
With B2, the “fold reduction of the interaction against wild-type PHYB” value in series [2] was determined as 5 fold.

B3: PHYB18-HA (PHYB D1040V), apoprotein (natural protein, Arabidopsis, UniProt P14713 1-1172, looked up)
chain: B1 chain
notes: not shown: HA, C-terminal, kept
B3: in the series with GST-PIF3 [3], the “interaction relative to that of PHYB-HA” value is ~0.33 fraction of wild type.
